Measurements reported in article PMC2895659.

What was measured:
[1] = molecular target: E1/E2 glycoprotein complex of Jc1/G451R (Jc1 with a single G451R mutation within E2) on HCV particles (hepatitis C virus genotype 2a (J6CF)) (UniProt P26660)
[2] = molecular target: E1/E2 glycoprotein complex of Jc1/mCD81 (Jc1 carrying L216F, V388G and M405T) on HCV particles (hepatitis C virus genotype 2a (J6CF)) (UniProt P26660)

## recombinant fusion protein between GST and the human CD81 large extracellular loop (LEL) (domain or fragment)
[1]
  reduction of luciferase reporter virus infection of Lunet N hCD81 cells after preincubation with 10 µg/ml hCD81 LEL: > 10 fold
[2]
  reduction of luciferase reporter virus infection of Lunet N hCD81 cells after preincubation with 10 µg/ml hCD81 LEL: > 10 fold
